From article PMC10828586, “Unmasking crucial residues in adipose triglyceride lipase for coactivation with comparative gene identification-58” (Journal of Lipid Research, 2023) come the findings set out here.

Common to all, as to assay: cell-based or functional assay
Assay [1] concerns the target T1, Xpress-mATGL288 N209A/I212A/N215A (Mus musculus, UniProt Q8BJ56 1-288, N209A | I212A | N215A).
T1 sequence (looked up): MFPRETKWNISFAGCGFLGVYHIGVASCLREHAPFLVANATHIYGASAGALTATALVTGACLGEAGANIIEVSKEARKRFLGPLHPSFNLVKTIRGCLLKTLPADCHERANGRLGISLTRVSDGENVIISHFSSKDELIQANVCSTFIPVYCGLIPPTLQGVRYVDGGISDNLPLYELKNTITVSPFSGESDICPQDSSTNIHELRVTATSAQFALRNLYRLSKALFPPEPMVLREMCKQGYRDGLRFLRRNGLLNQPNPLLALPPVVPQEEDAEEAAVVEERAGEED

Assay [2] has as its target T2, smt3-mATGL288-StrepII I212A (Mus musculus, UniProt Q8BJ56 1-288, I212A).
T2 sequence (looked up): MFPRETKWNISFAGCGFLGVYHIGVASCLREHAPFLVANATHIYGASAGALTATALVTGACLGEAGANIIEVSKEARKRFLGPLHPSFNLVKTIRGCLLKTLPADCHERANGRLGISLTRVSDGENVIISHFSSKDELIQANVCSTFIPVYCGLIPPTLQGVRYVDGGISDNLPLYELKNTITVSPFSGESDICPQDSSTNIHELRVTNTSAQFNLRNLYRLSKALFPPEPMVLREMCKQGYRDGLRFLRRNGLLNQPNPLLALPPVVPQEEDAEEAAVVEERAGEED

Assay [3] deals with T3, smt3-mATGL288-StrepII I212S (Mus musculus, UniProt Q8BJ56 1-288, I212S).
T3 sequence (looked up): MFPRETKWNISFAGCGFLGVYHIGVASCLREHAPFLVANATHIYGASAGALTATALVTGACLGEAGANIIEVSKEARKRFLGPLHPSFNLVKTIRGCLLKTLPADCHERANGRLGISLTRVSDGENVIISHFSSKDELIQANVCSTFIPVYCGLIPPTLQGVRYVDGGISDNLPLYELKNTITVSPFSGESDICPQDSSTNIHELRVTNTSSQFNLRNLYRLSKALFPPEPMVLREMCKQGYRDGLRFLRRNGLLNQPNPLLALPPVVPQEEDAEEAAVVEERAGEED

Assay [4] concerns the target T4, Xpress-mATGL, full-length, WT (Mus musculus, UniProt Q8BJ56 1-486).
T4 sequence (looked up): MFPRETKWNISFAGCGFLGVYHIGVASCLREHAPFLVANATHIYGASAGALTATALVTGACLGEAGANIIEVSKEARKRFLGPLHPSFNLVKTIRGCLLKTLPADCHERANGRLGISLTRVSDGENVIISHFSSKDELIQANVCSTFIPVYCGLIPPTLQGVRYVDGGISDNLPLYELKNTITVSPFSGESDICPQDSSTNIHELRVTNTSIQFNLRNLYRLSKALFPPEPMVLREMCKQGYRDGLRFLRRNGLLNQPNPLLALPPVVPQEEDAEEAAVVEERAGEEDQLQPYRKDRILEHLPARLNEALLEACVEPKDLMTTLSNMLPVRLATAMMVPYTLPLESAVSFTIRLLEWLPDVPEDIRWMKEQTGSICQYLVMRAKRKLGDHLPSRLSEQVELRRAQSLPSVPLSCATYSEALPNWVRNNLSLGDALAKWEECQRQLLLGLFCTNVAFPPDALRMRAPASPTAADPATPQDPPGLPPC

In assay [5] the target is T5, smt3-mATGL288-StrepII N209A (Mus musculus, UniProt Q8BJ56 1-288, N209A).
T5 sequence (looked up): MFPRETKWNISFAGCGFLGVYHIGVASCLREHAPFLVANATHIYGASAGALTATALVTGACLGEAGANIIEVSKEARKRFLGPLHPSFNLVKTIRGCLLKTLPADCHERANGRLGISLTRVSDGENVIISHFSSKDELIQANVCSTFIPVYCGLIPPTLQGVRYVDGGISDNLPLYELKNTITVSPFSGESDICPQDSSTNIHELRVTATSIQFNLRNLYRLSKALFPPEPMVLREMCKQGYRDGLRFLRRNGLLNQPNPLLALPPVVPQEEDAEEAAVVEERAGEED

For assay [6], the target named is T6, Xpress-mATGL288, WT (truncated after residue 288) (Mus musculus, UniProt Q8BJ56 1-288).
T6 sequence (looked up): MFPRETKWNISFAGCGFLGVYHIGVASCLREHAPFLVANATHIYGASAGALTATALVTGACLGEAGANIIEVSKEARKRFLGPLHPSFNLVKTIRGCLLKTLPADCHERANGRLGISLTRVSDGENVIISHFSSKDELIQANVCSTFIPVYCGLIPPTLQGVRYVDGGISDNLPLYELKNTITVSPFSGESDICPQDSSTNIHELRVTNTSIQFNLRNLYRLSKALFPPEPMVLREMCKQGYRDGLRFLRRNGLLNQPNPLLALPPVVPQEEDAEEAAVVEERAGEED

The target of assay [7] is T7, smt3-mATGL288-StrepII (mouse adipose triglyceride lipase truncated after residue 288), WT (Mus musculus, UniProt Q8BJ56 1-288).
T7 sequence (looked up): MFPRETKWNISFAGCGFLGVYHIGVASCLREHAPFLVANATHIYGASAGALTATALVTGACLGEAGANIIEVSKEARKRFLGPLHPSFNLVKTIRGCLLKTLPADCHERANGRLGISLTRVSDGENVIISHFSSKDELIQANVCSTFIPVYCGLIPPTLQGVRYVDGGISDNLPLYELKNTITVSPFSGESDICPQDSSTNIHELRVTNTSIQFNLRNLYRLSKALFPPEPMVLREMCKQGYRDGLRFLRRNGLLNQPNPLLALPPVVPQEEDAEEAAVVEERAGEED

In assay [8] the target is T8, smt3-mATGL288-StrepII N215A (Mus musculus, UniProt Q8BJ56 1-288, N215A).
T8 sequence (looked up): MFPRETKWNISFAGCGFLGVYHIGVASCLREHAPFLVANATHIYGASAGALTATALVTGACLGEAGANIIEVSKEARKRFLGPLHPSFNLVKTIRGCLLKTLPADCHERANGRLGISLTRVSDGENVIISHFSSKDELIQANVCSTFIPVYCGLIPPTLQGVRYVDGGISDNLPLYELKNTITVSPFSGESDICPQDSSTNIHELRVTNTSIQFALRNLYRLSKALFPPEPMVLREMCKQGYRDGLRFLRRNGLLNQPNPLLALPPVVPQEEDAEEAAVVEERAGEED

B1: smt3-mCGI-58-His6 (mouse comparative gene identification-58) (natural protein, UniProt Q9DBL9 1-351, looked up)
chain: MKAMAAEEEVDSADAGGGSGWLTGWLPTWCPTSTSHLKEAEEKMLKCVPCTYKKEPVRISNGNRIWTLMFSHNISSKTPLVLLHGFGGGLGLWALNFEDLSTDRPVYAFDLLGFGRSSRPRFDSDAEEVENQFVESIEEWRCALRLDKMILLGHNLGGFLAAAYSLKYPSRVSHLILVEPWGFPERPDLADQERPIPVWIRALGAALTPFNPLAGLRIAGPFGLSLVQRLRPDFKRKYSSMFEDDTVTEYIYHCNVQTPSGETAFKNMTIPYGWAKRPMLQRIGGLHPDIPVSVIFGARSCIDGNSGTSIQSLRPKSYVKTIAILGAGHYVYADQPEEFNQKVKEICHTVD
For the molecule B1, the “fold activation of TG hydrolase activity by mCGI-58 (Expi293F lysate)” value in assay [1] was not above 2 fold; in assay [4], approximately 20 fold; in assay [6], 11 fold. In addition, the “EC50 of mCGI-58 for coactivation of TG hydrolase activity (25 μg bacterial lysate with mATGL288 I212A, purified mCGI-58 up to 2,300 nM)” value in assay [2] was 500 nM. In addition, the “EC50 of mCGI-58 for coactivation of TG hydrolase activity (25 μg bacterial lysate with mATGL288 I212S, purified mCGI-58 up to 2,300 nM)” value in assay [3] was 200 nM. Further, the “EC50 of mCGI-58 for coactivation of TG hydrolase activity (25 μg bacterial lysate with mATGL288 N209A, purified mCGI-58 up to 2,300 nM)” value in assay [5] stood at 500 nM. Also, the “EC50 of mCGI-58 for coactivation of TG hydrolase activity (25 μg bacterial lysate with mATGL288, purified mCGI-58 up to 2,300 nM)” value in assay [7] stood at 178 nM. The “EC50 of mCGI-58 for coactivation of TG hydrolase activity (25 μg bacterial lysate with mATGL288 N215A, purified mCGI-58 up to 2,300 nM)” value in assay [8] worked out at 200 nM.
